Experimental data reported in the DeepSol protein solubility set.

Assay: soluble on expression in E. coli; label from the status in PepcDB or PDB records

| Sequence | soluble on expression in E. coli |
| --- | --- |
| MSLDLDRKLIEILDILSKSKEPVGAKIIAKELNKRGYKIGERAVRYHLKLLDGMKLTKKVGYAGRVITERGLEELEKANISYRLGSIYSNILEKTISANYRFGYVVINRCQVYADFNDVLKIIKSVYESGLAVGDRVGIIDREKFVEINTLCSLNFDNILLQNGIFPLHVCAGVVKYEDGKPVEFKEIIDYKSTSIDPLRAFIEKKETDVMGIIENGEGYLPANFRYFGVEFLERFETILEIDELKCIISYGTENVLGLDVGDDKVGVALIGGLTPIAPFVENNYCVEICPMSSIVRLESLHKLKKNPRDIVTKKANIRIKTALSKMFNAMAKVTYDIDEADGDVIVNTAFIDKKYLDEAFDILKEAYKKGLGISDRFGIVEENDRIKIQTICAVTLDGIFLRNSVPLIPKYGGILEITEDKERFIDIIGYDGSSLDPHEVFFNFVDCEKTFLAGFREVHRVAREKLEEVLKKLNWNGIKAIGEPNNELYGIGVNKDMCGVVTMGGINPLVLLKENEIPIELKAMHEVVRFSDLKSYKEIEGHHHHHH | not soluble |
| MGTFREEGSVSSGTKQEFHTGKLVTTKGDKELLIDNEKVTSGHTTTTRRSCSKVITKTVTNADGRTETTKEVVKSEDGSDCGDADFDWHHTFPSRGNLDDFFHRDKDDFFTRSSHEFDGRTGLAPEFAALGESGSSSSKTSTHSKQFVSSSTTVNRGGSAIESKHF | soluble |
| MGSDKIHHHHHHMGTVPTPAGLAFFQQVQLALRHLDHAVDSAHSSRLSGHVTVGFSPSVAAVIGTHFLKLMRNRYPDIKVRLIEGLSGDLKALVNARQLDVAIIFSDDVDPQWAIQPLVKEQMFLISPKEVLNQYHLESCIDNQTITHSQLKELPLILPSQRHGLRLLLEQKIHQLKVAYEIDGLHLLMESISQLEMATIQPAGASLNSRQDLCLLRVVEPAIERINYLISLSEEELSPATLATKVVIRACVANLINEKRWPGAELINT | not soluble |
| MSEEKPLKVSYSKQFVRDLTDLAKRSPNVLIGSKYITAIHCLLNRLPLPENYQDHALVGEWKGYRDCHIQGDLVLIYQYVIQDEFDELKFSRLNIHSQTALK | not soluble |
| CSSPKPDAEEQGVPVSPTASDPALLAEIRQSLDATKGLTSVHVAVRTTGKVDSLLGITSADVDVRANPLAAKGVCTYNDEQGVPFRVQGDNISVKLFDDWSNLGSISELSTSRVLDPAAGVTQLLSGVTNLQAQGTEVIDGISTTKITGTIPASSVKMLDPGAKSARPATVWIAQDGSHHLVRASIDLGSGSIQLTQSKWNEPVNVD | soluble |
| MGSDKIHHHHHHMTESQALIWDETFPSLLLKGQGTTSFLHGQTTADVFAQKELDRIFMCCWLSTKGALKAVLEIRLSDDMAEIVIICGEINSIRDGFESVIFPADKVKLEVIDPIRRRQEINNNSSWKDSDFSWIDDNTFSIDGITKYKKATKEELEGWKIRQGIPSFDKEMNGETNPYELGLADTINLDKGCYLGQEAMAKFFRSKSLKYQLRYWEAYGENDNFQIGKKFFNTNKNEGYKKNVGVVTSSIRVDDNFFNGLALIKKTFLDHDFCFSENGDSITIKKPISFTNPF | not soluble |
| MGSDKIHHHHHHMNLVAHAQNTEPFEGVMKWAITVDIVDSKVADSYQTEIQSEDNSEVNQAIKELEQQLKDPEMQEMLLENPTIKNSMLKKLQQLKAAQTTNQENSTNSIFPSALSIFLKNNNSFTKIDGGSMVKLTGNMLYLNTNKNTYFIKDKTSTYSVINDTARLNTNDSLIALIATTDTTMILDCICIKYILTTKENNEIKTSYIWITNDLPSMNSAAFRSLGFMDGNLHHEAFKEMKGIPMRIEIFEKGLKMNMEVSEISMELVADTYFTIPSNYRESPFGF | not soluble |
| SLDGELDTQPLIEQLWQAGKRVYLPVLHPFSPGNLLFLHYHPQSALVTNRLNIREPRLDVRDVLPLAKLDVLVTPLVAFDEGGQRLGMGGGFYDRTLQNWQQHKILPVGYAHDCQLVEKLPVEEWDIPLPAVVTPSKIWEW | soluble |
| MKLNKLFDSKTVVFKKSDKYGKSDCCKTKCVEGQIEFGVKIPTDFPAFNRALVTFLKTQKNQLNVDLDSFVELYKAENLCYKTALKVVVASITFCETTPFTMKTEPQKNVEVAVKCDSEHTSLIKEYEV | not soluble |
| MGSDKIHHHHHHMLGLKLPTDPRWVEIVETNIPEILTDHAYCEQKATTNAMYIVINFPEYTELVSDMIDLAQEELQHFKMVHDIIKKRGLVLGRARAAPYAGDIYAFMRKGHIRKYVLIDRLLFSALIEARSCERFRLLSEQISDPELKEFYRELMISEATHYTTFINYARKYSEGEDIDKRWQEFLAYEATVISKYGDNATMHG | not soluble |
